# Test system: MS2 coat protein
# Experiment: apparent KD of MS2 coat protein; designed switch direction (-1 OFF switch, 1 ON switch): 1; higher = weaker reporter binding
# Method in brief: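 The reported apparent KD is a per-design median over clusters, from curve fits of normalised cluster fluorescence. Protein titrations used SNAP-549-labelled MS2 coat protein, doubled from 0.7 or 1.5 nM to 3 µM, in Tris-HCl pH 7.5 buffer with KCl, MgCl2, BSA, DTT, tRNA and Tween-20, with no input, 200 uM small-molecule ligand, or an oligonucleotide input. The RNA switches were transcribed on Illumina chips by stalled E. coli RNA polymerase.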
# [1] = input ligand: microRNA oligo, concentration not stated
# [2] = Eterna round: R95, input ligand: microRNA oligo, concentration not stated
# [3] = Eterna round: R95, input ligand: FMN 200 uM
# [4] = Eterna round: R95, input ligand: none
Sequence,apparent KD of MS2 coat protein (input ligand: FMN 200 uM),apparent KD of MS2 coat protein [1],apparent KD of MS2 coat protein (input ligand: none),apparent KD of MS2 coat protein [2],apparent KD of MS2 coat protein [3],apparent KD of MS2 coat protein [4]
"CCGGUUUAUGGAGGAUAUGGAGCCUUAUUGGCUCCAGAAGGCUAAUACAUGAGGAUCACCCAUGUUCCGGCGGUCAAUAGACCG [Eli NG1ss - 58] (Eterna round: R96, puzzle: Same State NG 1)",23.9 nM,77.8 nM,126 nM,,,
"CCGUUCAAUAAACAUGAGGAUCACCCAUGUAAUAAUAAGGGUGAGGAUAUGCAUCUGAAACAGGUGCAGAAGGCAUAAGAGCGG [JL SSNG3 3.90] (Eterna round: R96, puzzle: Same State NG 3)",487 nM,289 nM,585 nM,,,
"CGACCAAUUGUUUAAUAAACAUGAGGAUCACCCAUGUUUCGUGAGGAUAUCUAGGGUGAAGCACGGGAGAAGGCACUACGGUCA [Eternabot solution 21] (Eterna round: R96, puzzle: Same State NG 3)",142 nM,120 nM,134 nM,,,
"CGCCCGAAUGAAGGAUAUGGUACAACACGAUGAUCAGAAGGUUAUUAAAGUGGGUGAUGCCGACAUGAGGAUCACCCAUGUUGG [Eternabot solution 40] (Eterna round: R96, puzzle: Same State NG 1)",53.1 nM,60 nM,66.9 nM,,,
CGGCGCUGUCGAGAGGAUAUGCGGUGAUGGACAUGAGGAUCACCCAUGUUAGCGAUAGCAUUACGGUAGAAGGCUCUACAGCUGC [Soteed Omei mod 4] (puzzle: Same State 2),,,,27.9 nM,,
CGGGUACAUGAGGAUCACCCAUGUAGAAGAGAUGCAGGAUAUGUGGGAAAAGGGAAUGUAACAGAAGGGCAAGGAG [JR_SS!_Sub017] (puzzle: Same State 1),,,,56.1 nM,47.4 nM,94.1 nM
"CGGUGAGAGACAGGAUAUCGAGCCUAACGAGGCCGAGAAGGGUCGCCCGAAGCGACCGACAUGAGGAUCACCCAUGUAGAAAGA [Eternabot solution 21] (Eterna round: R96, puzzle: Same State NG 1)",34.2 nM,30 nM,40.4 nM,,,
CGUCCGGCCUGAGCUGGUCGGAAGCAUGUACAUGAGGAUCACCCAUGUUCAUGUGCAGGCUUUUUGCUCGUCUUGUG [salish99_mir208a_modof_jandersonlee_004] (puzzle: Sensor for hsa-mir-208a),,,,13.1 nM,39.8 nM,39.6 nM
CGUCCGGCCUGUGCUGGCCGGUUGCUUGUACAUGAGGAUCACCCAUGUUCUUGUGCUGGCUUUUUGCUCGUCUUGUG [salish99_mir208a_019] (puzzle: Sensor for hsa-mir-208a),,,,19.2 nM,31.5 nM,37.8 nM
"CGUUGGACAUCCAGCAAGACAUGAGGAUCACCCAUGUAGGCGCAGGAUAUGCGGGUUCGGUGCUCGCAGAAGGGUGAAGAAAAC [Araerar] (Eterna round: R96, puzzle: Same State NG 3)",35.5 nM,21.3 nM,30.4 nM,,,
"CUAUCUACAGGUUGCAGUGCUCGUCUUAUACAUGAGGAUCACCCAUGUUAUAGCCCGGUGCUUGCGCUGGGCUGAUU [JL ViennaUCT Tearor mod 2] (Eterna round: R96, puzzle: Sensor for hsa-mir-208a)",40.9 nM,16.4 nM,41.1 nM,,,
CUAUCUACAGGUUGCAGUGCUCGUCUUAUACAUGAGGAUCACCCAUGUUAUAGCCCGGUGCUUGCGCUGGGCUGAUU [JL ViennaUCT Tearor mod 2] (puzzle: Sensor for hsa-mir-208a),,,,16.4 nM,36.4 nM,43 nM
"CUCAACAACACAGGAUAUCCAGGGAAAAGACCUGGAGAAGGGUGACCAACAUGAGGAUCACCCAUGUGACAGCCAGGCUGUCUG [Esisiszaon] (Eterna round: R96, puzzle: Same State NG 1)",164 nM,84.4 nM,47.7 nM,,,
CUCCCACGUGCACAGGAUAUGCCGGGAUGCACAUGAGGAUCACCCAUGUAAUCCUGAAAAUAAAAGCAGAAGGGUGAUCAUGGGU [Teestege] (puzzle: Same State 2),,,,11.6 nM,36.1 nM,10.2 nM
"CUGAAAUGUCAAGGAUAUCACGUCGAUUAGACGUGAGAAGGUGAUCUGCACAUGAGGAUCACCCAUGUGUUACAUGGGAGUCAG [Brourd's SSNG1/1-A2 mod 16] (Eterna round: R96, puzzle: Same State NG 1)",600 nM,324 nM,891 nM,,,
"CUGAGCAAGCAAGGAUAUCACGUCGAUUAGACGUGAGAAGGUGCUCCUUACAUGAGGAUCACCCAUGUAUAACAUGAAGCUCAG [SSNG1/10-A2] (Eterna round: R96, puzzle: Same State NG 1)",190 nM,902 nM,1090 nM,,,
"CUGAGCAGUCAAGGAUAUCACGUCGAAUAGACGUGAGAAGGUGACCAAUACAUGAGGAUCACCCAUGUAAUACAUGAAGCUCAG [SSNG1/12-A1] (Eterna round: R96, puzzle: Same State NG 1)",,26 nM,,,,
"CUGAGCAGUCAAGGAUAUCACGUCGUUUAGACGUGAGAAGGUGACCAAUACAUGAGGAUCACCCAUGUAAUACAUGAAGCUCAG [SSNG1/12-A3] (Eterna round: R96, puzzle: Same State NG 1)",16.2 nM,17.8 nM,37.2 nM,,,
"CUGAGCGAUCAAGGAUAUCACGUCGUUUAGACGUGAGAAGGUGAUCAUAACAUGAGGAUCACCCAUGUAUUACAUGAAGCUCAG [SSNG1/2-A3] (Eterna round: R96, puzzle: Same State NG 1)",208 nM,462 nM,1240 nM,,,
"CUGAGCGAUUAAGGAUAUCACGUCGAAUAGACGUGAGAAGGUGAUCAUAACAUGAGGAUCACCCAUGUAUUACAUGAAGCUCAG [SSNG1/3-A1] (Eterna round: R96, puzzle: Same State NG 1)",305 nM,100 nM,108 nM,,,
CUGCUACAUGAGGAUCACCCAUGUUGGAGUGAUGCAGGAUAUGUGGGACCAGAAGAUGAAACAGAAGGGCAAGGAG [JR_SS!_Sub006] (puzzle: Same State 1),,,,95.7 nM,110 nM,152 nM
CUGUCUACAGGUGUCUUUGCUCGUUUUAUACAUGAGGAUCACCCAUGUUAUAGCCCGGUGCUUGCGCUGGGCUGAUU [JL ViennaUCT Tearor mod 8] (puzzle: Sensor for hsa-mir-208a),,,,14.1 nM,66.8 nM,63 nM
"CUUAUUAAUGCAGGAUAUGAUUAACAUGAGGAUCACCCAUGUGGUGUUGUGAGUAAGGAGAGUGAUCAGAAGGGCAUUUUUUUU [JMF's solution 41] (Eterna round: R96, puzzle: Same State NG 2)",711 nM,410 nM,656 nM,,,
"CUUUAUCACUAUACAUGAGGAUCACCCAUGUUAUCAUCAUGAGAGGAUAUCGUAUUUGGAUUUUUCGAGAAGGCUCUAUUGUAU [JR_SSNG3_Sub077] (Eterna round: R96, puzzle: Same State NG 3)",,158 nM,,,,
"CUUUCUCUUGCAGGAUAUCCUAGUCUUCGGUUAGGAGAAGGGCAAGGAAAUUUGCUAAGCAAGUCUGUAACAGAGAUCCUCCUC [pwkr ssNG1 F9.1] (Eterna round: R96, puzzle: Same State NG 1)",30.8 nM,313 nM,37.9 nM,,,
"GAAAAACAUGAGGAUCACCCAUGUAAAAAAAUGGGAGGAUAUACAAAGACGAAAGUCAAAGUAGAAGGCCUGAAAG [same state 2] (Eterna round: R96, puzzle: Same State 1)",,42.7 nM,,,,
"GAAUAAAUGAUAGGAUAUACAUGAGGAAUUCUCGUAGAAGGAUCAUGACAUGAGGAUCACCCAUGUAACGCUCGAAAGAGCGUA [Mat - Same State NG 1 - JL mod - D41] (Eterna round: R96, puzzle: Same State NG 1)",607 nM,733 nM,928 nM,,,
GACAAUCUAUCUCAGGAUAUCAUGUCAAAGACAUGAGGAUCACCCAUGUACCAGGAAACUGGUUAUGAGAAGGGAGAUAGAUUGA [Mat - Same State 2 - Mod - D26] (puzzle: Same State 2),,,,142 nM,264 nM,427 nM
